B1: 单抗17-CQTS062 (antibody, V domains shown)
VH: EVQLVESGGGLVQPGRSLRLSCAASGFTFDDYAMHWVRQAPGKGLEWVSGISWNSDSIGYADSVKGRFTISRDNAKNSLYLQMNSLRAEDTALYYCAKDLSSGWDLFDYWGQGTLVTVSS
VL: SYVLTQPPSVSVAPGKTARITCGGNNIGSKSVHWYQQKPGQAPVLVIYYDSDRPSGIPERFSGSNSGNTATLSISRVEAGDEAGYYCQVWDTSGDPLVFGGGTKLTVL
B2: 单抗14-CQTS058 (antibody, V domains shown)
VH: EVQLVESGGGLVQPGRSLRLSCAASGFTFDDYAMHWVRQAPGKGLEWVSGISWSSGSIVYADSVKGRFTVSRDNAKNSLYLQMNSLRVEDTAFYYCAKDMVAGPHYYGMDVWGQGTTVTVSS
VL: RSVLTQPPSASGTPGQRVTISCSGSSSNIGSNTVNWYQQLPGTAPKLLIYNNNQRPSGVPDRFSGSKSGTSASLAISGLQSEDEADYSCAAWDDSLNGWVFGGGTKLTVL
B3: 单抗19-CQTS064 (antibody, V domains shown)
VH: EVQLVQSGAEVKKPGESLKISCEGSGYSFISYWIGWVRQMPGKGLEWMGIIYPGDSDTRYSPSFQGQVTISADRSISTAYLQWSSLKASDTAMYYCVRSDGDYVIGHDYWGQGTLVTVSS
VL: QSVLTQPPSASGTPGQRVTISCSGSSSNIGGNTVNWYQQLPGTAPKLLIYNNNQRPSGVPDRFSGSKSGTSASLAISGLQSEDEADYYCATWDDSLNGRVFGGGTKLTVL
B4: 单抗20-CQTS065 (antibody, V domains shown)
VH: EMQLVESGGGLVQPGGSLRLSCAASGFTFSTYEMNWVRQAPGKGLEWVSYISSSTNSIYYAGSVQGRFTISRGNAKNSLYLQMNSLRAEDTAVYYCARGRDDYGDYRGGDFDYWGQGTLVTVSS
VL: QIVLTQSPATLSLSPGERATLSCRASQSVTTYLAWYQQKPGQAPRLLIYDASHRATGIPARFSGSGSGTDFTLTISSLEPEDFAVYYCQQRSNWPPITFGPGTKVEIK
B5: 单抗16-CQTS061 (antibody, V domains shown)
VH: EVQLVESGGGLVQPGGSLRLSCAASGFTVISNYMSWVRQAPGKGLEWVSVIYRGGSTYFADSVKGRFTISRDNSKNTLYLQMNSLRAEDTAVYYCARLASDGSGSYLDYFDYWGQGTLVTVSS
VL: QSVLTQPPSVSGAPGQRVTISCTGSSSNIGADYDVHWYQQFPGTAPKLLIYGNSNRPSGVPDRFSGSKSGTSASLAITGLQAEDEADYYCQSYDSSLSGSWVFGGGTKLTVL
B6: 单抗13-CQTS057 (antibody, V domains shown)
VH: QVTLRESGPALVKPTQTLTLTCTFSGFSLSTSGMCVSWIRQPPGKALEWLARIDWDDDKYYSTSLRTRLTISKDTSKNLVVLTMTNMDPVDTATYYCALGRAGTMDYWGQGTLVTVSS
VL: DIQMTQSPSSLSASVGDRVTITCRASQSIRSYLNWYQQKPGKAPKVLIYAASSLQSGVPSRFSGSGSGTDFTLTISSLQPGDFATYYCQQSYSPPYTFGQGTKLEIK
B7: 单抗18-CQTS063 (antibody, V domains shown)
VH: QVQLVQSGAEVKKPGSSVKVSCKASGGTFSSYAISWVRQAPGQGLEWMGGIIPIFGTANYAQKFQGRVTITADESTSTAYMELSSLRSEDTAVYYCATDGGGGSYYYAHYYYGMDVWGQGTTVTVSS
VL: QTVVTQEPSFSVSPGGTVTLTCGLSSGSVPTSYFPSWYQQTPGQAPRTLIYGTNTRSSGVPDRFSGSILGNKAALTITGAQADDESDYYCVLYMGSGIVVFGGGTKLTVL
B8: 单抗11-CQTS055 (antibody, V domains shown)
VH: EVQLVESGGGLVQPGGSLRLSCAASGFTFSNYDMHWVRQGTGKGLEWVSAIGTAGDTYYPGSVKGRFTISRENAKNSLYLQMNSLRAGDTALYYCARVGYYGSGSYPLYWYFDLWGRGTLVTVSS
VL: DIQMTPSPSSLSASVGDRVTITCRASQSISIYLNWYQQKPGKAPKLLIYAASNLQSGVPSRFSGSGSGTEFTLTISSLQPEDFATYFCQQSYSAPPWTFGQGTRVEIR
notes: also called 实施例1的新冠病毒RBD特异性单克隆抗体
B9: 单抗12-CQTS056 (antibody, V domains shown)
VH: EVQLVQSGAEVKKPGESLKISCQGSGFSFSNYWIGWVRQMPGKGLEWMGIIYPDDSDTRYSPSFQGQVTISADKSISTAFLQWSSLKASDTAMYYCATRTGWTNDAFDIWGQGTMVTVSS
VL: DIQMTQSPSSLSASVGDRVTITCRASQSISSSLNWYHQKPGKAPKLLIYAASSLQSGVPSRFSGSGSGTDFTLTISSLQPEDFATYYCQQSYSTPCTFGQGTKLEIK
B10: 单抗15-CQTS059 (antibody, V domains shown)
VH: EVQLVQSGAEVKKPGESLKISCKASGYRFTNYWTVWVRQMPGKGLEWMGIIYPGDSEIRYSPPFQGQVTISADKSISTAYLQWSSLKASDTAMYYCARHPSNFYDSGGDYYAMDVWGQGTPVTVSS
VL: QSALTQPASVSGSPGQSITISCTGTSSNVGNYDLVSWYQQHPGKAPKLMIYEVNKRPSGVSDRFSGSKSGNTASLTISGLQAEDEADFYCCSYAGSSSWVFGGGTKVTVL

This test concerns the target SARS-COV-2RBD (SARS-CoV-2, UniProt P0DTC2 319-541). As to the kind of experiment: ELISA, RBD coated at 2 μg/mL, 293T transfection supernatant, anti-human IgG-ALP detection. For orientation: ELISA stands for enzyme-linked immunosorbent assay.
For B1, the binding result is “binds”. Turning to B2, the binding result is recorded as “binds”. The entry for B3 is “binds”. The entry for B4 is “binds”; for B5 it is “binds”; for B6 it is “binds”.

B7: the binding result is given as “binds”. As for B8, the entry is “binds”; as for B9, “binds”. The entry for B10 is “binds”.

The values are drawn from patent publication CN115477698A (UNIV CHONGQING MEDICAL; FENG YULIN, dated 2022).
